According to publication PMC2191783:

B1: c-fms -150 PU-ets wild type (dsDNA)
DNA 1: GCCCAAGGAGGAGGAAGAGGAAAACAAG
DNA 2: CTTGTTTTCCTCTTCCTCCTCCTTGGGC
B2: c-fms -150 mutant M1 (MT-1) (dsDNA)
DNA 1: GCCCAAGTAGTAGTAAGAGTAAAACAAG
DNA 2: CTTGTTTTACTCTTACTACTACTTGGGC

Target: PU.1 (recombinant) (mouse, UniProt P17433 1-272)
Assay: EMSA

Binder	binding result
B1	binds
B2	no binding
